The results in this text go back to article PMC4803301.

A short description of data set [1]: time course of secreted Rspo1, anti-myc blot. Particulars: glycan lost; control: wild type.
The nature of data set [2]: anti-myc blot of conditioned medium and lysate, HT1080. The conditions noted are these: glycan lost; control: wild type.
The nature of data set [3]: anti-myc blot of conditioned medium and lysate, HT1080-Rspo1-MH. The conditions noted are these: glycan lost; control: siCtrl.

B1: R-spondin1 (Rspo1): 2WA (protein)
parent chain: MRLGLCVVALVLSWTHLTISSRGIKGKRQRRISAEGSQACAKGCELCSEVNGCLKCSPKLFILLERNDIRQVGVCLPSCPPGYFDARNPDMNKCIKCKIEHCEACFSHNFCTKCKEGLYLHKGRCYPACPEGSSAANGTMECSSPAQCEMSEWSPWGPCSKKQQLCGFRRGSEERTRRVLHAPVGDHAACSDTKETRRCTVRRVPCPEGQKRRKGGQGRRENANRNLARKESKEAGAGSRRRKGQQQQQQQGTVGPLTSAGPA
As to B1, the expression_or_secretion result in data set [1] and in data set [2] was “decreases” in each case.

B2: R-spondin1 (Rspo1): siDPY19L3#2 (protein)
parent chain: MRLGLCVVALVLSWTHLTISSRGIKGKRQRRISAEGSQACAKGCELCSEVNGCLKCSPKLFILLERNDIRQVGVCLPSCPPGYFDARNPDMNKCIKCKIEHCEACFSHNFCTKCKEGLYLHKGRCYPACPEGSSAANGTMECSSPAQCEMSEWSPWGPCSKKQQLCGFRRGSEERTRRVLHAPVGDHAACSDTKETRRCTVRRVPCPEGQKRRKGGQGRRENANRNLARKESKEAGAGSRRRKGQQQQQQQGTVGPLTSAGPA
B2: in data set [3], the expression_or_secretion entry is on record as “decreases”.

B3: R-spondin1 (Rspo1): siDPY19L3 (protein)
parent chain: MRLGLCVVALVLSWTHLTISSRGIKGKRQRRISAEGSQACAKGCELCSEVNGCLKCSPKLFILLERNDIRQVGVCLPSCPPGYFDARNPDMNKCIKCKIEHCEACFSHNFCTKCKEGLYLHKGRCYPACPEGSSAANGTMECSSPAQCEMSEWSPWGPCSKKQQLCGFRRGSEERTRRVLHAPVGDHAACSDTKETRRCTVRRVPCPEGQKRRKGGQGRRENANRNLARKESKEAGAGSRRRKGQQQQQQQGTVGPLTSAGPA
Take B3: the expression_or_secretion entry in data set [3] is reported as “decreases”.
